Laboratory results from US7220554B2, “Methods for identifying inhibitors” (priority 2003, dated 2007).

Legend:
HIV-gpt(Δvif) = test: Titers of HIV-gpt(Δvif) virions made in 293T or COS7 cells, infectivity in HeLa-CD4 cells; format: cell-based, HIV-1; conditions: for antiviral activity of chimera: titer of virions from 293T cells in the absence of Vif: FIG. 12A
Source text: (§1) To analyze the antiviral activity of pcDNA3.1-APOBEC3G-Myc, human 293T and African green monkey COS7 cells were transiently cotransfected with pcDNA3.1-APOBEC3G-Myc in the presence of vectors for expression of HIV-gpt(wt) or HIV-gpt(Δvif) [these are derivatives of wild-type (wt) or vif deleted (Δvif) HIV-1 with the bacterial gpt gene replacing the viral env gene; Madani & Kabat, J. Virol. […] 74, 5982–5987, 2000]. Virions were subsequently harvested from the culture media and analyzed their infectivities in HeLa-CD4 (clone HI-J) cells. […] Similar results were obtained with owl monkey kidney cells. Thus, HIV-1 Vif neutralizes human APOBEC3G-Myc in both human and monkey cells.

HIV-gpt(wt) = test: Titers of HIV-gpt(wt) virions made in 293T or COS7 cells, infectivity in HeLa-CD4 cells; format: cell-based, HIV-1; conditions: producer cells 293T and COS7 cotransfected
Source text: as §1

HIV-1 encoded proteins = test: Immunoblotting of HIV-1-encoded proteins (Gag, Vif) in cotransfected producer cells; format: cell-based
Source text: Expression vectors: pHIV-gpt(wt) and its derivative pHIV-gpt(Δvif) were previously described (Madani & Kabat, J. Virol. 72, 10251–10255, 1998; Page et al., J Virol 64, 5270–5276, 1990; Madani & Kabat, J. Virol. 74, 5982–5987, 2000). pcDNA3.1-Vif was donated by D. Gabuzda (Dana-Farber Cancer Institute, Harvard, Boston, Mass.). Rev-dependent plasmids for expression of the Vif mutants Δ2, Δ5, Δ6, Δ7, Δ9, Δ10, Δ12 and Δ13 (Simon et al., J. Virol. 73, 2675–2681, 1999) were provided by M. Malim (Medical Research Council, Cambridge, UK) and were coexpressed with pHIV-gpt(Δvif). APOBEC3G cDNA was cloned from H9 cells (nonpermissive) by reverse transcriptase-PCR (Barnes, Proc. Natl. Acad. Sci. USA 91, 2216–2220, 1994; Sambrook et al., Molecular Cloning. A Laboratory Manual, Chapter 14, 14.5–14.34., CSHL Press, Cold Spring Harbor, 1989) using primers complementary to the 5′ and 3′ ends of APOBEC3G coding region (Sheehy et al., Nature 418, 646–650, 2002) (upstream primer, 5′-[…]-3′ (SEQ ID NO: 15) containing an XhoI restriction site [underlined]; downstream primer, 5′-[…]-3′ (SEQ ID NO: 16) containing a SfuI restriction site [underlined]). […] Virus-containing fractions were detected by immunoblotting using HIV Immunoglobulin serum (AIDS Research & Reference Reagent Program, Division of AIDS, NIAID, NIH: contributed by NABI and NHLBI). […]

| Molecule | antiviral activity of chimera: titer of virions from 293T cells in the absence of Vif (HIV-gpt(Δvif)) | decrease of titers of HIV-gpt(Δvif) virions (HIV-gpt(Δvif); producer cells 293T and COS7 cotransfected) | effect on titers of HIV-gpt(wt) (HIV-gpt(wt)) | synthesis of HIV-1 encoded proteins in the producer cells or their packaging into virions (HIV-1 encoded proteins) | expression of Vif (HIV-1 encoded proteins; FIGS. 3A and 3B) |
| --- | --- | --- | --- | --- | --- |
| APOBEC3G-Myc: fusion of human APOBEC3G with Myc epitope and 6×His tag, SEQ ID NO: 2 (protein, Synthetic construct human APOBEC3G fused to Myc) MKPHFRNTVERMYRDTFSYNFYNRPILSRRNTVWLCYEVKTKGPSRPPLDAKIFRGQVYSELKYHPEMRFFHWFSKWRKLHRDQEYEVTWYISWSPCTKCTRDMATFLAEDPKVTLTIFVARLYYFWDPDYQEALRSLCQKRDGPRATMKIMNYDEFQHCWSKFVYSQRELFEPWNNLPKYYILLHIMLGEILRHSMDPPTFTFNFNNEPWVRGRHETYLCYEVERMHNDTWVLLNQRRGFLCNQAPHKHGFLEGRHAELCFLDVIPFWKLDLDQDYRVTCFTSWSPCFSCAQEMAKFISKNKHVSLCIFTARIYDDQGRCQEGLRTLAEAGAKISIMTYSEFKHCWDTFVDHQGCPFQPWDGLDEHSQDLSGRLRAILQNQENFEQKLISEEDLNMHTGHHHHHH | low titer | 25–100 fold | no effect | no significant or reproducible effect | no effect |
| APOBEC3G-luciferase (protein, Synthetic construct human APOBEC3G fused to luciferase) MKPHFRNTVERMYRDTFSYNFYNRPILSRRNTVWLCYEVKTKGPSRPPLDAKIFRGQVYSELKYHPEMRFFHWFSKWRKLHRDQEYEVTWYISWSPCTKCTRDMATFLAEDPKVTLTIFVARLYYFWDPDYQEALRSLCQKRDGPRATMKIMNYDEFQHCWSKFVYSQRELFEPWNNLPKYYILLHIMLGEILRHSMDPPTFTFNFNNEPWVRGRHETYLCYEVERMHNDTWVLLNQRRGFLCNQAPHKHGFLEGRHAELCFLDVIPFWKLDLDQDYRVTCFTSWSPCFSCAQEMAKFISKNKHVSLCIFTARIYDDQGRCQEGLRTLAEAGAKISIMTYSEFKHCWDTFVDHQGCPFQPWDGLDEHSQDLSGRLRAILQNQENKLSMVTDAKNIKKGPAPFYPLEDGTAGEQLHKAMKRYALVPGTIAFTDAHIEVDITYAEYFEMSVRLAEAMKRYGLNTNHRIVVCSENSLQFFMPVLGALFIGVAVAPANDIYNERELLNSMGISQPTVVFVSKKGLQKILNVQKKLPIIQKIIIMDSKTDYQGFQSMYTFVTSHLPPGFNEYDFVPESFDRDKTIALIMNSSGSTGLPKGVALPHRTACVRFSHARDPIFGNQIIPDTAILSVVPFHHGFGMFTTLGYLICGFRVVLMYRFEEELFLRSLQDYKIQSALLVPTLFSFFAKSTLIDKYDLSNLHEIASGGAPLSKEVGEAVAKRFHLPGIRQGYGLTETTSAILITPEGDDKPGAVGKVVPFFEAKVVDLDTGKTLGVNQRGELCVRGPMIMSGYVNNPEATNALIDKDGWLHSGDIAYWDEDEHFFIVDRLKSLIKYKGYQVAPAELESILLQHPNIFDAGVAGLPDDDAGELPAAVVVLEHGKTMTEKEIVDYVASQVTTAKKLRGGVVFVDEVPKGLTGKLDARKIREILIKAKKGGKIAV | antiviral activity only in the absence of Vif | – | – | – | – |
